Test results: patent US11130793B2, “GLP-1/GLP-2 dual agonists” (Zealand Pharma A/S, priority 2016, dated 2021)
Square brackets hold non-standard residues; d marks the D form. Aib = CC(C)(N)C(=O)O

T1: human GLP-2 receptor (hGLP2-R) (human, UniProt O95838)
T1 sequence: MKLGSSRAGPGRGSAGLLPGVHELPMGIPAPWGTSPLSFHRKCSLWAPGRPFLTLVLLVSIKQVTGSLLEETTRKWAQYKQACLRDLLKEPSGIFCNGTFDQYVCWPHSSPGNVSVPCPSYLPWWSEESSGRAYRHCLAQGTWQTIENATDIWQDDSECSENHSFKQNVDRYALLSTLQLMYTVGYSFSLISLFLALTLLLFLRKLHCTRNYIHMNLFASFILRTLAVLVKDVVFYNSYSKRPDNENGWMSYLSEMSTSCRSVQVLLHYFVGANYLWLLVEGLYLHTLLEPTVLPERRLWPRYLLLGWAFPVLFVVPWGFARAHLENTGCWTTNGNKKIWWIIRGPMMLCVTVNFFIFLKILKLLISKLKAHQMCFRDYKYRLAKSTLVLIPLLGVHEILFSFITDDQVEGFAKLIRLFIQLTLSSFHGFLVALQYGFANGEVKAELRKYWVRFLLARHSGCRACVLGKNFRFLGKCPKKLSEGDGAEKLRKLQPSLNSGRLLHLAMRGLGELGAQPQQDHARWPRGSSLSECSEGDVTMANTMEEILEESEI


Legend:
[1] = molecular target: T1, human GLP-2 receptor (hGLP2-R); experiment: cell-based or functional assay
[2] = molecular target: human glucagon-like peptide 1 receptor (GLP-1R) (human, UniProt P43220); experiment: cell-based or functional assay

EC50 GLP-2 (nM); cAMP AlphaScreen [1] | EC50 GLP-1 (nM); cAMP AlphaScreen [2] | Binder
0.041 nM | 0.004 nM | H-H[Aib]EGTFTSELATILDEQAARDFINWLIAHKITD-OH (SMILES CC[C@H](C)[C@H](NC(=O)[C@H](CC(C)C)NC(=O)[C@H](Cc1c[nH]c2ccccc12)NC(=O)[C@H](CC(N)=O)NC(=O)[C@@H](NC(=O)[C@H](Cc1ccccc1)NC(=O)[C@H](CC(=O)O)NC(=O)[C@H](CCCNC(=N)N)NC(=O)[C@H](C)NC(=O)[C@H](C)NC(=O)[C@H](CCC(N)=O)NC(=O)[C@H](CCC(=O)O)NC(=O)[C@H](CC(=O)O)NC(=O)[C@H](CC(C)C)NC(=O)[C@@H](NC(=O)[C@@H](NC(=O)[C@H](C)NC(=O)[C@H](CC(C)C)NC(=O)[C@H](CCC(=O)O)NC(=O)[C@H](CO)NC(=O)[C@@H](NC(=O)[C@H](Cc1ccccc1)NC(=O)[C@@H](NC(=O)CNC(=O)[C@H](CCC(=O)O)NC(=O)C(C)(C)NC(=O)[C@@H](N)Cc1c[nH]cn1)[C@@H](C)O)[C@@H](C)O)[C@@H](C)O)[C@@H](C)CC)[C@@H](C)CC)C(=O)N[C@@H](C)C(=O)N[C@@H](Cc1c[nH]cn1)C(=O)N[C@@H](CCCCN)C(=O)N[C@H](C(=O)N[C@H](C(=O)N[C@@H](CC(=O)O)C(=O)O)[C@@H](C)O)[C@@H](C)CC) [Compound 33]
0.078 nM | 0.02 nM | H-H[Aib]EGSFTSELATILDGKAARDFIAWLIAHKITD-OH (SMILES CC[C@H](C)[C@H](NC(=O)[C@H](CC(C)C)NC(=O)[C@H](Cc1c[nH]c2ccccc12)NC(=O)[C@H](C)NC(=O)[C@@H](NC(=O)[C@H](Cc1ccccc1)NC(=O)[C@H](CC(=O)O)NC(=O)[C@H](CCCNC(=N)N)NC(=O)[C@H](C)NC(=O)[C@H](C)NC(=O)[C@H](CCCCN)NC(=O)CNC(=O)[C@H](CC(=O)O)NC(=O)[C@H](CC(C)C)NC(=O)[C@@H](NC(=O)[C@@H](NC(=O)[C@H](C)NC(=O)[C@H](CC(C)C)NC(=O)[C@H](CCC(=O)O)NC(=O)[C@H](CO)NC(=O)[C@@H](NC(=O)[C@H](Cc1ccccc1)NC(=O)[C@H](CO)NC(=O)CNC(=O)[C@H](CCC(=O)O)NC(=O)C(C)(C)NC(=O)[C@@H](N)Cc1c[nH]cn1)[C@@H](C)O)[C@@H](C)O)[C@@H](C)CC)[C@@H](C)CC)C(=O)N[C@@H](C)C(=O)N[C@@H](Cc1c[nH]cn1)C(=O)N[C@@H](CCCCN)C(=O)N[C@H](C(=O)N[C@H](C(=O)N[C@@H](CC(=O)O)C(=O)O)[C@@H](C)O)[C@@H](C)CC) [Compound 31]
0.048 nM | 0.006 nM | H-H[Aib]EGTFTSELATILDEQAARDFINWLKAHKITD-OH (SMILES CC[C@H](C)[C@H](NC(=O)[C@H](Cc1ccccc1)NC(=O)[C@H](CC(=O)O)NC(=O)[C@H](CCCNC(=N)N)NC(=O)[C@H](C)NC(=O)[C@H](C)NC(=O)[C@H](CCC(N)=O)NC(=O)[C@H](CCC(=O)O)NC(=O)[C@H](CC(=O)O)NC(=O)[C@H](CC(C)C)NC(=O)[C@@H](NC(=O)[C@@H](NC(=O)[C@H](C)NC(=O)[C@H](CC(C)C)NC(=O)[C@H](CCC(=O)O)NC(=O)[C@H](CO)NC(=O)[C@@H](NC(=O)[C@H](Cc1ccccc1)NC(=O)[C@@H](NC(=O)CNC(=O)[C@H](CCC(=O)O)NC(=O)C(C)(C)NC(=O)[C@@H](N)Cc1c[nH]cn1)[C@@H](C)O)[C@@H](C)O)[C@@H](C)O)[C@@H](C)CC)C(=O)N[C@@H](CC(N)=O)C(=O)N[C@@H](Cc1c[nH]c2ccccc12)C(=O)N[C@@H](CC(C)C)C(=O)N[C@@H](CCCCN)C(=O)N[C@@H](C)C(=O)N[C@@H](Cc1c[nH]cn1)C(=O)N[C@@H](CCCCN)C(=O)N[C@H](C(=O)N[C@H](C(=O)N[C@@H](CC(=O)O)C(=O)O)[C@@H](C)O)[C@@H](C)CC) [Compound 35]
0.11 nM | 0.007 nM | H-H[Aib]EGTFTSELATILDEQAARDFINWLKSYKITD-OH (SMILES CC[C@H](C)[C@H](NC(=O)[C@H](Cc1ccccc1)NC(=O)[C@H](CC(=O)O)NC(=O)[C@H](CCCNC(=N)N)NC(=O)[C@H](C)NC(=O)[C@H](C)NC(=O)[C@H](CCC(N)=O)NC(=O)[C@H](CCC(=O)O)NC(=O)[C@H](CC(=O)O)NC(=O)[C@H](CC(C)C)NC(=O)[C@@H](NC(=O)[C@@H](NC(=O)[C@H](C)NC(=O)[C@H](CC(C)C)NC(=O)[C@H](CCC(=O)O)NC(=O)[C@H](CO)NC(=O)[C@@H](NC(=O)[C@H](Cc1ccccc1)NC(=O)[C@@H](NC(=O)CNC(=O)[C@H](CCC(=O)O)NC(=O)C(C)(C)NC(=O)[C@@H](N)Cc1c[nH]cn1)[C@@H](C)O)[C@@H](C)O)[C@@H](C)O)[C@@H](C)CC)C(=O)N[C@@H](CC(N)=O)C(=O)N[C@@H](Cc1c[nH]c2ccccc12)C(=O)N[C@@H](CC(C)C)C(=O)N[C@@H](CCCCN)C(=O)N[C@@H](CO)C(=O)N[C@@H](Cc1ccc(O)cc1)C(=O)N[C@@H](CCCCN)C(=O)N[C@H](C(=O)N[C@H](C(=O)N[C@@H](CC(=O)O)C(=O)O)[C@@H](C)O)[C@@H](C)CC) [Compound 36]
0.049 nM | 0.005 nM | H-H[Aib]EGTFTSELATILDEQAARDFISWLIAHKITD-OH (SMILES CC[C@H](C)[C@H](NC(=O)[C@H](CC(C)C)NC(=O)[C@H](Cc1c[nH]c2ccccc12)NC(=O)[C@H](CO)NC(=O)[C@@H](NC(=O)[C@H](Cc1ccccc1)NC(=O)[C@H](CC(=O)O)NC(=O)[C@H](CCCNC(=N)N)NC(=O)[C@H](C)NC(=O)[C@H](C)NC(=O)[C@H](CCC(N)=O)NC(=O)[C@H](CCC(=O)O)NC(=O)[C@H](CC(=O)O)NC(=O)[C@H](CC(C)C)NC(=O)[C@@H](NC(=O)[C@@H](NC(=O)[C@H](C)NC(=O)[C@H](CC(C)C)NC(=O)[C@H](CCC(=O)O)NC(=O)[C@H](CO)NC(=O)[C@@H](NC(=O)[C@H](Cc1ccccc1)NC(=O)[C@@H](NC(=O)CNC(=O)[C@H](CCC(=O)O)NC(=O)C(C)(C)NC(=O)[C@@H](N)Cc1c[nH]cn1)[C@@H](C)O)[C@@H](C)O)[C@@H](C)O)[C@@H](C)CC)[C@@H](C)CC)C(=O)N[C@@H](C)C(=O)N[C@@H](Cc1c[nH]cn1)C(=O)N[C@@H](CCCCN)C(=O)N[C@H](C(=O)N[C@H](C(=O)N[C@@H](CC(=O)O)C(=O)O)[C@@H](C)O)[C@@H](C)CC) [Compound 34]
0.034 nM | 0.046 nM | H-H[Aib]EGTFSSELATILDEQAARDFIAWLIAHKITD-OH (SMILES CC[C@H](C)[C@H](NC(=O)[C@H](CC(C)C)NC(=O)[C@H](Cc1c[nH]c2ccccc12)NC(=O)[C@H](C)NC(=O)[C@@H](NC(=O)[C@H](Cc1ccccc1)NC(=O)[C@H](CC(=O)O)NC(=O)[C@H](CCCNC(=N)N)NC(=O)[C@H](C)NC(=O)[C@H](C)NC(=O)[C@H](CCC(N)=O)NC(=O)[C@H](CCC(=O)O)NC(=O)[C@H](CC(=O)O)NC(=O)[C@H](CC(C)C)NC(=O)[C@@H](NC(=O)[C@@H](NC(=O)[C@H](C)NC(=O)[C@H](CC(C)C)NC(=O)[C@H](CCC(=O)O)NC(=O)[C@H](CO)NC(=O)[C@H](CO)NC(=O)[C@H](Cc1ccccc1)NC(=O)[C@@H](NC(=O)CNC(=O)[C@H](CCC(=O)O)NC(=O)C(C)(C)NC(=O)[C@@H](N)Cc1c[nH]cn1)[C@@H](C)O)[C@@H](C)O)[C@@H](C)CC)[C@@H](C)CC)C(=O)N[C@@H](C)C(=O)N[C@@H](Cc1c[nH]cn1)C(=O)N[C@@H](CCCCN)C(=O)N[C@H](C(=O)N[C@H](C(=O)N[C@@H](CC(=O)O)C(=O)O)[C@@H](C)O)[C@@H](C)CC) [Compound 2]
0.15 nM | 0.038 nM | H-H[Aib]EGTFSSELATILDGKAARDFIAWLIAHKITD-OH (SMILES CC[C@H](C)[C@H](NC(=O)[C@H](CC(C)C)NC(=O)[C@H](Cc1c[nH]c2ccccc12)NC(=O)[C@H](C)NC(=O)[C@@H](NC(=O)[C@H](Cc1ccccc1)NC(=O)[C@H](CC(=O)O)NC(=O)[C@H](CCCNC(=N)N)NC(=O)[C@H](C)NC(=O)[C@H](C)NC(=O)[C@H](CCCCN)NC(=O)CNC(=O)[C@H](CC(=O)O)NC(=O)[C@H](CC(C)C)NC(=O)[C@@H](NC(=O)[C@@H](NC(=O)[C@H](C)NC(=O)[C@H](CC(C)C)NC(=O)[C@H](CCC(=O)O)NC(=O)[C@H](CO)NC(=O)[C@H](CO)NC(=O)[C@H](Cc1ccccc1)NC(=O)[C@@H](NC(=O)CNC(=O)[C@H](CCC(=O)O)NC(=O)C(C)(C)NC(=O)[C@@H](N)Cc1c[nH]cn1)[C@@H](C)O)[C@@H](C)O)[C@@H](C)CC)[C@@H](C)CC)C(=O)N[C@@H](C)C(=O)N[C@@H](Cc1c[nH]cn1)C(=O)N[C@@H](CCCCN)C(=O)N[C@H](C(=O)N[C@H](C(=O)N[C@@H](CC(=O)O)C(=O)O)[C@@H](C)O)[C@@H](C)CC) [Compound 32]
